Measured values: patent US20240218057A1 (ROCKEFELLER UNIVERSITY, published 2024)
Residue numbers refer to the chain shown, from its start.

B1: C054 (antibody, V domains shown)
VH: EVQLVESGGGLIQPGGSLRLSCAASGFTVSNNYMSWVRQAPGKGLEWVSVIYSGGSTYDADSVKGRFTISRDNSKNTLYLQMNSLSAEDTAVYYCAREGDVEGYYDFWSGYSRDRYYFDYWGQGTLVTVSS
VL: QSALTQPASVSGSPGQSITISCTGTSSDVGGYNYVSWYQQHPGKAPKLMIYDVSNRPSGVSNRFSGSKSGNTASLTISGLQAEDEADYYCSSYTSSSARVFGTGTKVTVL
B2: C058 (antibody, V domains shown)
VH: QVQLVQSGAEVKKPGASVKVSCKASGYIFTDYSMHWVRQAPGQGLEWIGWVNPNSGGTNYAQKFQGWVTMARDTSITTVYMELSRLKSDDTAVYFCARGPLFHRLVYDFWSGYHDGFDMWGQGTMVTVSS
VL: B1 VL with N33K, Y34F, D52E, S91N, A98T, R99W, T103G, V107L
B3: C057 (antibody, V domains shown)
VH: QVQLVQSGAEVKRPGASVKLSCKASGYIFTDYSIHWVRQAPGQGLEWMGWVNPNSGGGNSAQKFMDWVTMARDTSITTVYMELSRLRSDDTAVYYCARGPLFHKLVYDSWSGYHDGFDIWGQGTMVTVSS
VL: QSALTQPASVSGSPGQSITISCTGTSSDVGAYKFVSWYQQHPGKAPQLIIYEVSNRPSGVSNRFSGSKSGNTASLTISGLQAEDEADYYCSSYTNASTWVFGGGTELTVL
B4: C059 (antibody)
chain 1: QVQLVQSGAEVKKPGASIKVSCKASGYTFTDYSMHWVRQAPGQGLEWMGWINPNSGGTKYAQKFQGWVTMTRDMSITTVYMELTRLRSDATAVFYCARGPLFHKLVYDSWTGYHDGFDIWGQGTMVTVSS
chain 2: QSALTQPASVSGSPGQSITISCTGTSSDVGGYNYVSWYQHYPGKAPKLMIYEVTHRPSGVSNRFSGSKSGNTASLTISGLQAEDEADYYCSSSTNSSTWVFGGGTKMTVL
B5: C062 (antibody, V domains shown)
VH: EVQLVESGGGLVKPGGSLRLTCAASGFTFSTYSMNWVRQAPGKGLEWVSSISSSSSYIYYADSVKGRFTISRDNAKNSLYLQMNSLRAEDTAVYYCARERGYYGGKTPPFLGGQGTLVTVSS
VL: NFMLTQPHSVSESPGKTVTISCTGSSGSIASNYVQWYQQRPGSAPTTVIYEDNQRPSGVPDRFSGSIDSSSNSASLTISGLKTEDEADYYCQSYDSSNYWVFGGGTKLTVL
B6: C088 (antibody, V domains shown)
VH: QVQLVQSGAEAKKPGASVKVSCKTSGYTFTNYFMHWVRQAPGQGPEWMGIIDSSDGGASYAQKFQGRVTMTRDTSTSTVYMELRSLKFEDTAVYYCARASTSTTSWSDALSLGSWGQGTLVTVSS
VL: QSVLTQPPSVSGAPGQRVTISCTGSSSNIGGGSVVHWYQQLPGTAPKLLIYANSNRPSGVPDRFSGSKSGTSASLAIAGLQAEDEADYYCQSWDNGLSASGVVFGGGTKLTVL
B7: C518 (antibody, V domains shown)
VH: EVQLVESGGGLIQPGGSLRLSCAASGITVSSNYMSWVRQAPGKGLEWVSVMYAGGSSFYADSVKGRFTISRDNSKNTLYLQMNSLRVEDTAVYYCARDLIALGVDVWGQGTTVTVSS
VL: DIQLTQSPSFLSASVGDRVTITCRASQGISSYLAWYQQKPGKAPKLLIYAASTLQSGVPSRFSGSGSGTEFTLTISSLQPEDFATYYCQLLNSYPMCSFGQGTKLEIK
B8: C069 (antibody, V domains shown)
VH: QVQLVQSGAEVKKPGSSVNVSCKASGGTFSTYAIHWVRQAPGQGLEWMGGIIPLFHTANYAQKFQGRVTITADESTSTAYMELSSLRSEDTAMYYCAINTQWDLVPRWGRGTLVTVSS
VL: EIVLTQSPGTLSLAPGERATLSCRASQSVNSNYLAWYQQKPGQAPRLLIYGASSRATGIPDRFSGSGSGTDFTLTISRLEPEDFAVYYCQQYGFSLYSFGQGTKLEIK
B9: C080 (antibody, V domains shown)
VH: EVQLVQSGAEVKKPGESLNISCKASGYSFTIYWIAWVRQLPGKGLEWMGIIYPGDSDTRYSPSFQGQVTISADKSISTAYLQWRSLKASDSAVYYCARGVAVDWYFDLWGRGTLVTVSS
VL: QSVLTQPPSVSGAPGQRVTISCAGSSSNIGAGFDVYWYQQLPGTAPKLLIYGNNNRPSGVPDRFSGSKSGTSASLAITGLQAEDEADYYCQSSGSVLSDLYVFGTGTKVTVL
B10: C094 (antibody, V domains shown)
VH: QVQLQESGPGLVKPSETLSLTCNVSGVSISTDYWSWIRQPPGKGLEWIGYIYYSGNTKDYNPSLKSRVTISVDTSKNQFSLMLSSVTAADTAVYYCARHYDILTSLSWFDPWGQGTLVTVSS
VL: QSVLTQPPSVSAAPGQKVTISCSITNSNLGNIYVSWYQQLPGTAPKLLIYGNNKRPSGIPDRFSGSKSGTSATLGITGLQTGDEAHYYCGTWDSSLSANWVFGGGTKLTVL
B11: C521 (antibody, V domains shown)
VH: EVQLVESGGGLVRPGGSLTLSCVASGFTVGSNFMSWVRQAPGKGLEWVSLIYNSGGTHYADSVKGRFTISRDRSKNTLYLQMNSLRAEDTAIYYCANHGYYYYMDVWGKGTTVTVS
VL: QSALTQPASVSGSPGQSITISCTGTGSDIGAYNYVSWHQHHPGKAPKLIIYDVSNRPSGVSNRFSGSKSGNTASLTISGLQAEDEADYYCTSYTNTTTPWVFGGGTKVTVL
B12: C513 (antibody, V domains shown)
VH: EVQLLESGGGLVQPGGSLRLSCVASGFSFSTYAMSWVRQAPGQGLEWVSTITGTSIGTYYADSVKGRFTISRDNSKNTVFLQMKSLRAEDAAVYYCANHPLASGDEYYYYYMDVWGKGTTVTVSS
VL: EIVLTQSPDTLSLSPGERATLSCRASQSVHSKQLAWYQQKPGQAPRLLIYGASSRATGIPDRFSGSGSGTDFTLTISRLEPEDFAVYYCQQYGSIRALTFGGGTKVEIK
B13: C514 (antibody, V domains shown)
VH: EVQLVESGGGLVQPGGSLRLSCAASEFIVTRNYMSWVRQAPGKGLEWVSLIYPGGSTFYADSVKGRFTISRDNSKNTLFLHMNSLRAEDTAVYYCARDLAGRLDYWGQGTLVTVSS
VL: DIQMTQSPSSLSASVGDRVTITCQASQDINNFLNWYQQKPGKAPKLLIYDASNLETGVPSRFSGSGSGTDFTFTISSLQPEDIAIYYCQQYDSLSRLTFGGGTKVEIK
B14: C539 (antibody, V domains shown)
VH: EVQLVESGGGLVQPGRSLRLSCAASGFTFDDYALHWVRQAPGKGLEWVSGISWNGDSIGYADSVKGRFTISRDNAKNSLSLQMNSLTAEDTALYYCAKGVEYSSSSNCDYWGQGTLVTVSS
VL: DIQMTQSPSSVSASVGDRVTITCRASQDISSWLAWYQQKPGKAPKLLISLASGLQSGVPSRFSGSGSETDFTLTISSLQPEDFATYYCQQTNSFPLTFGGGTKVEI
B15: C542 (antibody, V domains shown)
VH: EVQLVESGGGLVQPGGSLRLSCAASGLTVTSNYMSWVRQAPGRGLEWVSLIYPGGTTYYADSVKGRFTVSRDNSKNTLYLQMDSLRAEDTGVYYCARETLGRGGDCWGQGTLVTVSS
VL: DIQMTQSPSSLSASVGDRVTITCQASQDISNFLNWYQQKPGKAPKLLIYDASNLETGVPSRFSGSRSGTDFTFTISSLQPDDIATYYCQQYDNLPRSFGQGTKLEIK
B16: C547 (antibody, V domains shown)
VH: QVQLVESGGGVVQPGRSLRLSCAASGFTFSSYGMHWVRQAPGKGLEWVAVISYDGSNKYYADSVKGRFTISRDNSKNTLYLQMNSLRAEDTAVYYCAKDTPGGDDILTGWGLYGMDVWGQGTTVTVSS
VL: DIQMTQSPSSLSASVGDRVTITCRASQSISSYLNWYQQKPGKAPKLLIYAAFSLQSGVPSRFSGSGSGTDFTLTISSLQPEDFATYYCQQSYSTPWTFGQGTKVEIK
B17: C543 (antibody, V domains shown)
VH: B16 VH with A23T, S31T, Y32A, Y59D, N77S, A88P, L107M
VL: DIQMTQSPSSLSASVGDRVTITCRASQSISSYLNWYHQKPGKAPKLLIYAAISLQSGVPSRFSGSGFGTDFTLTISSLQPEDFAIYYCQQSYSTPWTFGQGTKVEIK
B18: C538 (antibody, V domains shown)
VH: QLQLQESGPGLVKPSETLSLTCTVSGGSISSSSYYWAWIRQPPGKGLEWIGNIYYSGITYYSPSLKSRVTISVDTSKNQFSLKLRSVTAADTAVYYCARQHRYGSGSSELLWGQGTLVTVSS
VL: QSALTQPPSASGSPGQSVTISCTGTSSDVGSYNYVSWYQQHPGKAPKLMIYEVTKRPSGVPDRFSGSKSGNTASLTVSGLQADDEADYYCSSYAGSSNLIFGGGTKLTVL
B19: C533 (antibody, V domains shown)
VH: EVQLVESGGSLVKPGGSLRLSCVASGLTFNHAWMSWVRQAPGKGLEWVGRIKSKIDGGTTDYAAPVKGRFTISRDDSKSTQYLQMNSLKTEDTAVYYCTTDCFWRLGGTTCYEHDAFDVWGQGTMVTVSS
VL: DIQMTQSPSSLSASVGDRVTITCRASQAIATFLNWYQQKPGKAPKLLIYAASSLQSGVPSRFSGSGSGTDFTLTISNLQPEDFATYYCQQSYNSLHFGGGTKVEIK
B20: C534 (antibody, V domains shown)
VH: QVQLVQSGAEVKKPGSSVRVSCKASGGTFSRNVISWVRQAPGQGLEWMGGIIPMFATANYAQKFQGRVTITADESSSTAYMELSSLRSEDTAVYYCAREDFILVSAPIRENSYYYYGMDVWGQGTTVTVSS
VL: B8 VL with A14S, N30S, G51D, F94G, L96P, Y97R, S98T, L105V
B21: C537 (antibody, V domains shown)
VH: QLQLQESGPGLVKPSETLSLTCTVSGGAISSRNYHWGWIRQPPGKGLEWIGSIYYSGSTYYSPSLKSRVTISVDTSKNQFSLRLSSVTAADTAVYYCARLETSGWYTEDVFDIWGQGTMVTVSS
VL: B17 VL with H37Q, I52S, F67S, Q79L, I85T, Q90R, T94A, P95M, W96Y, V104L
B22: C046 (antibody, V domains shown)
VH: EVQLVESGGGLAQPGRSLRLSCAASGFTFDDYAMHWVRQAPGKGLEWVSGINWNSGSLGYADSVKGRFTISRGIAKNSLYLQMNSLRPEDTAFYYCAKAGVRGIAAAGPDLNFDYWGQGTLVTVSS
VL: EIVLTQSPATLSLSPGERATLSCRASQSVSSYLAWYQQKPGQAPRLLIYDASNRATGIPARFIGSGSGTDFTLTISSLEPEDFAVYYCQQRITFGQGTRLEIK

These binders were tested against SARS-COV-2 RBD (SARS-COV-2, UniProt P0DTC2 319-539) (assay: ELISA, RBD coated).

Binder | EC50
B1 | 1.58 ng/mL
B2 | 2.28 ng/mL
B3 | 2.31 ng/mL
B4 | 1.88 ng/mL
B5 | 4.69 ng/mL
B6 | 2.44 ng/mL
B7 | 1.13 ng/mL
B8 | 381 ng/mL
B9 | 1.97 ng/mL
B10 | 1.67 ng/mL
B11 | 6.9 ng/mL
B12 | 1.31 ng/mL
B13 | 0.82 ng/mL
B14 | 1.3 ng/mL
B15 | 1.07 ng/mL
B16 | 1.78 ng/mL
B17 | 1.28 ng/mL
B18 | 3.94 ng/mL
B19 | 1.61 ng/mL
B20 | 4.85 ng/mL
B21 | 41.9 ng/mL
B22 | 4.02 ng/mL
